In a protein production outcome set (Wang et al. 2014):

Assay: label from the status in PepcDB records

Sequence | protein production
MVYVGTSGFSFEDWKGVVYPEHLKPSQFLKYYWAVLGFRIVELNFTYYTQPSWRSFVQMLRKTPPDFYFTVKTPGSVTHVLWKEGKDPKEDMENFTRQIEPLIEEQRLKMTLAQFPFSFKFSRKNVEYLEKLRESYPYELAVEFRHYSWDREETYEFLRNHGITFVVVDEPKLPGLFPYRPITTTDYAYFRFHGRNERWFEAEGEERYDYLYSEEELKTLFEDVVELSRRVKETYVFFNNCYKGQAAINALQFKKMLEERV | not failed
MTLSIAHLGPPGTYAEQAAVLYVNWLTKSTGDEATLSPYPTISQSLHAVADGQAHLAVVPVENSIEGSVTTTLDALWQLDSLRIQLALVLPIVHTLISCASGLDKIETVYSHPQALAQCQGWLERFLPTVQIVPSNSTTEALQRLEQETTTAAIASSRAAQLYNLPILATGINDYPENCTRFWVVSQGEADAGYQTSKVPTSHTSLAFSMPANTPGALVKPLQIFAQLGINLSRIESRPTKRSLGEYLFFMDLEADVKESQMQSALAELTIHTEILKILGAYNVLPIGAFT | failed
MNIAFTFKNFEPSEHLKKYARRRFEKLARFVGKSANLELQVALSLDKFRQKAEVQLVGDSINIAAVEQSEDMYATIDLVLDKLEAQLKKHVSRVKERRRSARTNANIDVFTYHTEGEGEDRAIVGTDQFVPKPLHVDEAAMQLDALDYEFLVFLNAESERINVIYRRRNGDFGLIDPVV | failed
VPGILMCEIFIRANQRSYSVQARSLRLHGVATSVRLEQLFWDVLEEIAARDGMRVTQLIERLYDELVQYRGEAANFTSFLRVCCLRYQVLQAEGRIPADATVPIRSLDAQAVLRGLPANLYDSR | not failed
MDVLIHLFVGLHIIGIAALLGGFLTQMKAMGRGTARFVPGMLHGALTMLVTGVALVGLNQADDHSVNTIKIGVKLALLIVILGLVYVKRDEEQVDKGLFGLVGLLTTANIFIAVLWT | failed
MGVALRPLLAEYKESPGWDGLGGIAAVDAFNALYQFLSGIRQADGAPLMDGQGRITSHLSGLLFRNANLIEKNITPIYVFDGKPPVFKASTLSKRREVRENAADAWEKALKEGDEESARKYAMASSKIDAFIIDSSKELLSALGIAWIQAPEEGEAQSSFMTKNGDVTYAVSQDYDSLLFGAPDLVRNITVSGKKRIRGKVLSVYPERLRLEEVLTGLSVTQEELIQIALLIGTDYNSGVPGVGPKTAVKIVREGKFYDRIGESENAAEPDQLIGYFMDPPVERSYNIESRSPDPDRVIDLLCGEHGFTQERVEAGLERLGAKKGQATLDAWF | failed
MTNIQALFERIAPLYDRLNDQLSFGLHHVWKQMAVDWLELPQGATALDLCCGTGDLTRLLARRVGRQGRVVGLDFAAAPLAIARQRSDHYPQIEWLQGDALAVPFAPQTFQGITIGYGLRNVVDIPQALREMFRLLVPGGRAAILDFSHPQTSALEQFQQWYLQQWVVPTARHYGLAAEYDYLWPSIQAFPTPPTLCALIQQAGFERVKHYPLLGGLMAITVAQKLEHHHHHH | failed
MYHILIRKGLLNMKTVLIVGANGRVSIEATKIFLENSRFNVDLFLRNAHRIPDYASNRIKVYEGDAKNIEDLESALNNVDVVFASLSGSLDKQAETIVKAMDNKNVKRLIFVAAPGIYDELPEPFNQWNKEQFGEKLNRYRKASDIIENSDLDYTIIRPGWLTDKNENVYEITAKNETFKGTEVSRKSVASLAVQIAKNPELHSKENIGVNKPNTEGNKPAWFN | failed
MVINRKIIGSYTQRQIAALLTDEPPSEQPKCNVRVVEMTYTTVGVVGEPARASGVVLVPDGPQCPGPYPVLGWGSATETLRSAEQAKGIISANGDDPLVTRLASQGYVVVSTDYLGLGGSNYPYHPYLHANSEASALIDALRASRTVLQHLNTPLSNKLMLSGFSQGGHTAMATQREIEAHLSNEFSLVASAPISGPYALSQTFLDTWTGRNEVGENNFAIILGTYAIVGMQRTYRNIYSDPSQVFQDPWANQVEALFPGKKDTTDLFLGDDLPAIDQIKEYFQPGFYSDFPKNRKNPFFVDLVRNDLLNWAPRTPTLLCGSDNDTVVPFLKNTNLAIASFKKRGSRQVSVVDIGTGNRKDNSALTHLSSEELCIVKVRNEFLEKKR | failed
MNSFSSKNPEGCSLKVLIKYLLKLSVVPFLIGLGGFIVFVSLEILYQLSDLIVRHRVGIEKLFLMLYYYLPYFVAMGVPVGVLLAIFWTFSRLSEERELMAIQVHGISQKNLIVPFLILGALLSIAVFFLSDQIVPEYQSKAEEAMSKYVLKKPEVFVVENVISKIGDDQYFYVEKYDERTSTMWNVVIFRYGHEETIVTAKRVQKKGNDWYLFDGNYYTVDKDGFLKLDVHFSEMKLDITEDIEKLLRVGKTPKEMTGKELKEKIEFFKKVGVKPSPWVVELHSRYANSLTPIVIVLVGVPLSLLFQLRSKSWGVIFTFVLVVLYQGSGAWLSAMGKENLLNPVLAPWIPNIVFTIVGTLLFILLDTFFAYRITEFLSRLFFVAFIFTVSSLFSSQVVIVSDRMEKFPEEMVFHGSVEIAYKDMTVQASEATIQLTEEGKAKKLEASGGVIYRKADTILMGEHLIFYLENEKSVLTHIRGSTVLEIEKEKKKIYLSGEDLTSEGSRTIVDMGSISTCSETPPHYKLKARYIEIKENDYLLAKDVVFYLLEIPLFYQPIFFTSLSDKPQPFSVEVGVGNNPHLKTSYNVSYPSGLLYFSTKSVLSGGLSKELNWNHKMGSWSLNLDYKESTSHSVLVKIFDSKNTFLFSQKNEERIHQFERKEKILNGSLNVVLRKESDGEDSYILPRVTVKKVSVKTGVGTFSVDSFNHETRIEDQEKRNSGSVSLSFRSVPFLLFQSVSVSTTGKYLFENQNLDERTSYLKTDSIWDFQNLSLGKFLVLDDKIYAGVYRSNEDGYRVGNLFTTTLRVPLGPFSFESYYKLFTVSGENLRKFSQNESKNEVDLKVSFSYENFKSSLETTYDFLEKEFSDPYLKTSYSFKTGDITHTVDSTTRFVLDEISRSYTTWNFQQRMGAFLNRFYFTYYYREPHVKYVEDQMRIYGKNFLFMENPRITTYTKLSVDPFELDEFWIRGTFKKGESTHSLKMSYSSDNLEFSYQTKNGDPALEISFSLKDWNVEKFSLSVEKALHCLGTKISTSFGRNFTLESFSILFFIRDFPNSGIGFDTEEGIGLNVF | failed
MTMPHAFSRQPATHRSGRFPRSRALLLASLLAAGLASLPAWAAAPATRTAQAAPEGSSRAAVQLEKSRPRGNLLATDRTDLPAVPLSEDIMYRVLASEVSLQRGLVEPAYRTYLGLAQDTRDPRFAQRATEIAFLTRSPSQALTAARLWVELAPTSMPARQVQQLLMVATGQWSEVEPMLQAQLNKVSPGQRAEAILQLQQQMSKSNDPAGAVSALQRLTTHDAQRPETHLALARAKVVAKDNTGALSELDTALKLRPGYEDAAILAAELRADSDPDAAISGLRTFLKAAPASIDGHLALARMYLVRNQNDQARAEFEALRKIAPTDPRIPLALGLLNLQQRQYDSAEQYLKEYVAQAAKSPSLSPEPGYQGLAQVAEEKRDYAGAITWLDKIAGASNGDGDGQVALAAGIKRAQLLGKLRRIDEAQQAFDELIADTEDVPDGPRRQALMDGIRQAEVGMLMDAKAYGRARARVNDLLRTSPDSVEYTYQLSMLEEHDGHYDNMETLLRKVIDLRPGQAIGYNALGYSLADRNIRLQEAQELLEKAVSLAPDDPYIADSLGWVKYRRGDLPAATDILRKAWAAAPQAEIGAHLGEVLWQSGKQDDARKVWTEAAKLDINDTTLRETLHRFSQPLPDAPTSAN | failed
TLIYGHRGAKGEAPENTLASFQRCLEHGVNRCELDLHLSRDGELMVIHDPTLKRTTGRRGKVAEHDAATLATYDARKGGPGWVRPTPIPRLEELFEKCPFEHWQLEVKSASRERAARTVTRIRELTERFGNRDKVTVTSGSRTVLKALNELTPELSRGLVAEYAWLDPLKVAQHYGCALLALNWTLCTPERLLKAQRQGLHVSVWTVNEPALMRRLADFGVDSLITDFPGLASATLGNR | failed
GREQMASFESAYVALSRMKQHVQVYTDNREGWIKAIKNSPEKATAHDILEPRNDRAVKTADLLFGRARPLDETAAGRAALQQSGLAQGSSPGKFISPGKKYPQPHVALPAFDKNGKAAGIWLSPLTDRDGRLEAIGGEGRIMGNEDARFVALQNSRNGESLLAGNMGEGVRMARDNPDTGVVVRLAGDDRPWNPGAMTGGRVWAEPAPVAPVPQAGADIILPPEVLAQRAAEEQQRREMEKKAEQTAREMAGEARKAG | failed
MKVIMTTKVDKASMNIMNKLIENFGFKETEYVFDGNPVYKRGDVLILTTNDEMIYYDYLDREIENQLGFKPEIIAFASRHSSKQKLPALTTHVTGNWGKAMYGGKDESFAVAIPSAMKLSLLKMSELNDLGWTVCYEATHHGPTELEVPSFFIEIGSSEEEWINDRAGEIIAETIIYVLDNYEKGRSKFKVALGIGGGHYAPKQTKRALEGDLAFGHILPKYAQPVSRDVMIKALNRFGEKVEAIYVDWKGSRGETRQLAKSLAQELGLEFIKD | not failed
MAFTESDVYNNTAFFEQYMKRRYRENSPNESIEKPVFFQLIGHVQGKQILDLGCGDAKFGAELLEKGCYSYTGIEGSELMYEKAKKQLENKNGSVHFLNLKDYTYPSSTFDLVTSRLALHYIEHLDTIFQNVFQTLKTNGTFTFSVQHPVITSSFESLQTSGKRTIWLVDDYFKLGKRVEPWIDQEVIKYHRTTEEYFTLLQQAGFTITSLKEATPNPTYFQDEEEYKRRLRIPLFLLFSCTK | failed
MGSSARFRGRTDTMLLTRFNPENGTITVLSIPRDTRVEIPGYGTSKINAANVYGDVELTVQVVSQTLNYTPIDRYIRINTDAFRELVDLVGGVEVNVPKRMVYTDHTQKLYIDLQPGLQTLNGEQAEGFVRFRYDELGDIGRAQRQQLLIKALQEKLANPVMLTQLPKLYSVLQKYVDTDLTFAELMAIAQFSLRIQPDNLHLILLPGHFSGDGYGTSYWLPDYDRIDRVVAEHFSDRPSKLVDQRGSETGTLRIALQNASGSSGAAQDMADFLARHGYTNVLISEDWYQQTSETEIVAQQGDLGAAQVIRSVLGMGRVSANSTGVLSSDITIRIGRDWAAVLHLEHHHHHH | failed
LRKMIALIHKDYAKNLRLETLASVFNYNRAYLGKLFKNYTGEYFNTYLDKVRIENGKRLLQKGYKVYEVAEKIGYANVDYFHRKFKKYVGVSPSTFRKR | not failed
MPHSRPLSRLRASLILLLVSFIWGSAFVAQKTAFDAVEGATAPALGPLAFTGARFLLGALVVLPFALRENRQARSRGAPGAGLLAIFCGIGAVLFAASFTQQLGIIGTSVTNAGFLTALYVPLVPVVALVIFRQSVRKMIWPGAAGCLAGLWLLTGAATNGLSALTAGDLWVLVGALFWAFHVTVVGVMATRSGRPLTLAAAQFLTCGVLGWAGAFAFETPTLAGMAAIAPEIAYAGILSVGVAFTLQVVAQRHTHPAAAAIILSMEMVFASLAAVVVLGERLSGVQWLGAGLILASIIAVESAAALGDRRRGAAGALTP | failed
MSEVVKKFMYLNRKAPYGTIYAWEALEVVLIGAAFDQDVCVLFLDDGVYQLTRGQDTKGIGMKNFSPTYRTLGDYEVRRIYVDRDSLEARGLTQDDLVEIAFEDMETEEEFDNIVEVIDSARVSELMNESDAVFSF | not failed
MSLVKKSSNVIAAVVSSVRTNFAQQILDGIQEEAHKNGYNLIIVYSGSADPEEQKHALLTAIERPVMGILLLSIALTDDNLQLLQSSDVPYCFLSMGFDDDRPFISSDDEDIGYQATNLLINEGHRQIGIAGIDQYPYTGRKRLAGYKKALKEANIAINQEWIKPGDYSYTSGEQAMKAFGKNTDLTGIIAASDMTAIGILNQASSFGIEVPKDLSIVSIDGTEMCKITRPQLTSISQDFFQMGVTGVQQIHQSVKNGSNRIVSQQFIPVNPVIRKSTARLGEGHHHHHH | not failed
VRRIKLGSQGLEVSAQGLGCMGLSAFYGTPKPETEAIALIHHAIHSGVTFLDTSDIYGPETNELLLSKALKDGVREKVELATKYGIRYAEGKVEFKGDPAYVRAACEASLMRVDVACIDLYYQHRIDTRVPIEITIGELKKLVEEGKIKYIGLSEASASTIRRAHAVHPITALQIEWSLWSRDVEEDIIPTCRELGIGIVAYSPLGRGFFASGPKLVENLDNNDVRKTLPRFQQENLDHNKILFEKVSAMSEKKGCTPAQLALAWVHHQGDDVCPIPGTTKIENLNQNIGALSVKLTPEEMSELESLAQP | failed
